# The supplement of paper PMC10567573
# B1: ZNF263 (parent)
# chain: LLRHQRIHTGERPYKCPECGKSFS
# Variants of: B1
# Assay: protein stability index of a GFP-peptide fusion (GPS, HEK-293T) (PSI 1-6); higher = more stable
# Details: c terminus: a fixed tail appended
# 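Also: lentivirally expressed fusions sorted by FACS into six bins by GFP to DsRed ratio, PSI derived from sequencing read proportions per bin multiplied by bin number.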
row,Variant,protein stability index
1,LLRHQRIHTGERRYKCPECGKSFS [P13R],1.72
2,LLRHQRIHTGEREYKCPECGKSFS [P13E],2.48
3,LLRHQRIHTGERLYKCPECGKSFS [P13L],2.73
4,LLRHQRIHTGERHYKCPECGKSFS [P13H],1.64
5,LLRHQRIHTGERTYKCPECGKSFS [P13T],2.56
6,LLRHQRIHTGERIYKCPECGKSFS [P13I],1.87
7,LLRHQRIHTGERCYKCPECGKSFS [P13C],2.16
8,LLRHQRIHTGERAYKCPECGKSFS [P13A],3.1
9,LLRHQRIHTGERMYKCPECGKSFS [P13M],2.5
10,LLRHQRIHTGERFYKCPECGKSFS [P13F],2.01
11,LLRHQRIHTGERVYKCPECGKSFS [P13V],2.54
12,LLRHQRIHTGERGYKCPECGKSFS [P13G],2.36
13,LLRHQRIHTGERDYKCPECGKSFS [P13D],2.11
14,LLRHQRIHTGERYYKCPECGKSFS [P13Y],1.89
15,LLRHQRIHTGERWYKCPECGKSFS [P13W],2.83
16,LLRHQRIHTGERSYKCPECGKSFS [P13S],2.02
17,LLRHQRIHTGERKYKCPECGKSFS [P13K],1.78
18,LLRHQRIHTGERQYKCPECGKSFS [P13Q],3.02
19,LLRHQRIHTGERNYKCPECGKSFS [P13N],2.69
20,LLRHQRIHTGEVPYKCPECGKSFS [R12V],2.91
21,LLRHQRIHTGENPYKCPECGKSFS [R12N],1.59
22,LLRHQRIHTGEFPYKCPECGKSFS [R12F],2.65
23,LLRHQRIHTGESPYKCPECGKSFS [R12S],2.11
24,LLRHQRIHTGEWPYKCPECGKSFS [R12W],1.7

row,Variant,protein stability index
1,LLRHQRIHTGETPYKCPECGKSFS [R12T],2.45
2,LLRHQRIHTGEDPYKCPECGKSFS [R12D],1.93
3,LLRHQRIHTGEIPYKCPECGKSFS [R12I],2.64
4,LLRHQRIHTGEMPYKCPECGKSFS [R12M],2.08
5,LLRHQRIHTGECPYKCPECGKSFS [R12C],2.48
6,LLRHQRIHTGEGPYKCPECGKSFS [R12G],3.4
7,LLRHQRIHTGEEPYKCPECGKSFS [R12E],2.71
8,LLRHQRIHTGEYPYKCPECGKSFS [R12Y],2.6
9,LLRHQRIHTGEAPYKCPECGKSFS [R12A],2.11
10,LLRHQRIHTGEHPYKCPECGKSFS [R12H],2.67
11,LLRHQRIHTGEPPYKCPECGKSFS [R12P],2.52
12,LLRHQRIHTGEKPYKCPECGKSFS [R12K],2.43
13,LLRHQRIHTGEQPYKCPECGKSFS [R12Q],2.67
14,LLRHQRIHTGELPYKCPECGKSFS [R12L],2.69
15,LLRHQRIHTGERPYVCPECGKSFS [K15V],2.4
16,LLRHQRIHTGERPYRCPECGKSFS [K15R],2
17,LLRHQRIHTGERPYMCPECGKSFS [K15M],2.15
18,LLRHQRIHTGERPYCCPECGKSFS [K15C],2.16
19,LLRHQRIHTGERPYYCPECGKSFS [K15Y],2.17
20,LLRHQRIHTGERPYICPECGKSFS [K15I],2.46
21,LLRHQRIHTGERPYHCPECGKSFS [K15H],2.29
22,LLRHQRIHTGERPYTCPECGKSFS [K15T],1.97
23,LLRHQRIHTGERPYACPECGKSFS [K15A],2.52
24,LLRHQRIHTGERPYSCPECGKSFS [K15S],2.48

row,Variant,protein stability index
1,LLRHQRIHTGERPYFCPECGKSFS [K15F],2.41
2,LLRHQRIHTGERPYGCPECGKSFS [K15G],2.62
3,LLRHQRIHTGERPYECPECGKSFS [K15E],2.66
4,LLRHQRIHTGERPYQCPECGKSFS [K15Q],2.46
5,LLRHQRIHTGERPYNCPECGKSFS [K15N],2.19
6,LLRHQRIHTGERPYLCPECGKSFS [K15L],1.98
7,LLRHQRIHTGERPYWCPECGKSFS [K15W],2.03
8,LLRHQRIHTGERPYDCPECGKSFS [K15D],2.74
9,LLRHQRIHTGERPYPCPECGKSFS [K15P],1.74
10,LLRHQRIHTGVRPYKCPECGKSFS [E11V],2.56
11,LLRHQRIHTGWRPYKCPECGKSFS [E11W],2.01
12,LLRHQRIHTGTRPYKCPECGKSFS [E11T],2.51
13,LLRHQRIHTGFRPYKCPECGKSFS [E11F],1.56
14,LLRHQRIHTGDRPYKCPECGKSFS [E11D],2.34
15,LLRHQRIHTGCRPYKCPECGKSFS [E11C],1.96
16,LLRHQRIHTGGRPYKCPECGKSFS [E11G],2.63
17,LLRHQRIHTGHRPYKCPECGKSFS [E11H],2.7
18,LLRHQRIHTGQRPYKCPECGKSFS [E11Q],2.51
19,LLRHQRIHTGYRPYKCPECGKSFS [E11Y],1.88
20,LLRHQRIHTGSRPYKCPECGKSFS [E11S],2.34
21,LLRHQRIHTGLRPYKCPECGKSFS [E11L],1.99
22,LLRHQRIHTGIRPYKCPECGKSFS [E11I],1.78
23,LLRHQRIHTGNRPYKCPECGKSFS [E11N],2.32
24,LLRHQRIHTGARPYKCPECGKSFS [E11A],2.26

row,Variant,protein stability index
1,LLRHQRIHTGPRPYKCPECGKSFS [E11P],2.39
2,LLRHQRIHTGRRPYKCPECGKSFS [E11R],3.3
3,LLRHQRIHTGMRPYKCPECGKSFS [E11M],1.99
4,LLRHQRIHTGKRPYKCPECGKSFS [E11K],2.04
5,LLRHQRIHTCERPYKCPECGKSFS [G10C],2.49
6,LLRHQRIHTPERPYKCPECGKSFS [G10P],2.15
7,LLRHQRIHTTERPYKCPECGKSFS [G10T],3.22
8,LLRHQRIHTMERPYKCPECGKSFS [G10M],2.23
9,LLRHQRIHTHERPYKCPECGKSFS [G10H],2.61
10,LLRHQRIHTFERPYKCPECGKSFS [G10F],2.07
11,LLRHQRIHTYERPYKCPECGKSFS [G10Y],2.17
12,LLRHQRIHTWERPYKCPECGKSFS [G10W],1.69
13,LLRHQRIHTLERPYKCPECGKSFS [G10L],2.3
14,LLRHQRIHTIERPYKCPECGKSFS [G10I],2.29
15,LLRHQRIHTEERPYKCPECGKSFS [G10E],3.06
16,LLRHQRIHTSERPYKCPECGKSFS [G10S],2.64
17,LLRHQRIHTRERPYKCPECGKSFS [G10R],2.46
18,LLRHQRIHTKERPYKCPECGKSFS [G10K],2.24
19,LLRHQRIHTAERPYKCPECGKSFS [G10A],2.36
20,LLRHQRIHTDERPYKCPECGKSFS [G10D],2.56
21,LLRHQRIHTVERPYKCPECGKSFS [G10V],2.43
22,LLRHQRIHTNERPYKCPECGKSFS [G10N],3.12
